Measurements from IntAct's records for PubMed 32296183.

What was measured:
[1] = biological target: dtx3_human DTX3 (UniProt Q8N9I9)
[2] = biological target: ptn21_human PTPN21 (UniProt Q16825)
[3] = biological target: rm38_human MRPL38 (UniProt Q96DV4)
[4] = biological target: prdm6_human PRDM6 (UniProt Q9NQX0)
[5] = biological target: hspb8_human HSPB8 (UniProt Q9UJY1)
[6] = biological target: dazp2_human DAZAP2 (UniProt Q15038)
[7] = biological target: leng8_human LENG8 (UniProt Q96PV6)
[8] = biological target: magd1_human MAGED1 (UniProt Q9Y5V3)
[9] = biological target: tm174_human TMEM174 (UniProt Q8WUU8)
[10] = biological target: cytm1_human CYSTM1 (UniProt Q9H1C7)
[11] = biological target: EYA2, O00167-2
[12] = biological target: trib3_human TRIB3 (UniProt Q96RU7)
[13] = biological target: pa2gx_human PLA2G10 (UniProt O15496)
[14] = biological target: arrd3_human ARRDC3 (UniProt Q96B67)
[15] = biological target: NR1H3, Q13133-3
[16] = biological target: GLIS3, Q8NEA6-2
[17] = biological target: mdfi_human MDFI (UniProt Q99750)
[18] = biological target: egr4_human EGR4 (UniProt Q05215)
[19] = biological target: vp37b_human VPS37B (UniProt Q9H9H4)
[20] = biological target: pihd2_human PIH1D2 (UniProt Q8WWB5)
[21] = biological target: ctds1_human CTDSP1 (UniProt Q9GZU7)
[22] = biological target: tri27_human TRIM27 (UniProt P14373)
[23] = biological target: fx4l1_human FOXD4L1 (UniProt Q9NU39)
[24] = biological target: prr34_human PRR34 (UniProt Q9NV39)
[25] = biological target: wbp2_human WBP2 (UniProt Q969T9)
[26] = biological target: RUNX1, Q01196-8
[27] = biological target: SIAH1, Q8IUQ4-2
[28] = biological target: pdli7_human PDLIM7 (UniProt Q9NR12)
[29] = biological target: hspb7_human HSPB7 (UniProt Q9UBY9)
[30] = biological target: noto_human NOTO (UniProt A8MTQ0)
noto_human NOTO, sequence (A8MTQ0 whole entry): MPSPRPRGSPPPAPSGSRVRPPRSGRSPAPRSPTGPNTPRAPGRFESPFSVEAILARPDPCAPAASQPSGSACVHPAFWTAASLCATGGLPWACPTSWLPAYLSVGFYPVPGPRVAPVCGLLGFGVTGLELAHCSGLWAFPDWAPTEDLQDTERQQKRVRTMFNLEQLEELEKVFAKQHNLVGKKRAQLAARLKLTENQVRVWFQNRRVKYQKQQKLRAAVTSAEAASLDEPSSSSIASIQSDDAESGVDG

NR1H3, Q13133-3, sequence (Q13133 46-447): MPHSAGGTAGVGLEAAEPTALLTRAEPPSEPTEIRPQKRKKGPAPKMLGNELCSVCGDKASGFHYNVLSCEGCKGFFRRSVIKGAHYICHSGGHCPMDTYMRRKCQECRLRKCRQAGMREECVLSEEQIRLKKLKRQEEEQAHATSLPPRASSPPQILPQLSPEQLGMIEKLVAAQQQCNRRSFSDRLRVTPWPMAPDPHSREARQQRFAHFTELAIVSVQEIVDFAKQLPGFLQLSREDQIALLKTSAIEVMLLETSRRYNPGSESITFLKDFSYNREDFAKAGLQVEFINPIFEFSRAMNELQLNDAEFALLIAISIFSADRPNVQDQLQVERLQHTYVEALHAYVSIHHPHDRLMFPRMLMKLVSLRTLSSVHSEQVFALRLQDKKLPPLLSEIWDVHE
ctds1_human CTDSP1, sequence (Q9GZU7 whole entry): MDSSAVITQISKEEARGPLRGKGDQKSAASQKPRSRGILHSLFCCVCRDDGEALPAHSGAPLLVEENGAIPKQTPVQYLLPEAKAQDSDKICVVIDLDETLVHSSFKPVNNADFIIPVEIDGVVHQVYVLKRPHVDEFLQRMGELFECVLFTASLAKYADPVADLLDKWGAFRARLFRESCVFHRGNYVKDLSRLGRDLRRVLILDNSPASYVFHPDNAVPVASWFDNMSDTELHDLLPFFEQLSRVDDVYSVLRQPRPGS
GLIS3, Q8NEA6-2, sequence (Q8NEA6 other isoform, or with tags, fused parts or gaps): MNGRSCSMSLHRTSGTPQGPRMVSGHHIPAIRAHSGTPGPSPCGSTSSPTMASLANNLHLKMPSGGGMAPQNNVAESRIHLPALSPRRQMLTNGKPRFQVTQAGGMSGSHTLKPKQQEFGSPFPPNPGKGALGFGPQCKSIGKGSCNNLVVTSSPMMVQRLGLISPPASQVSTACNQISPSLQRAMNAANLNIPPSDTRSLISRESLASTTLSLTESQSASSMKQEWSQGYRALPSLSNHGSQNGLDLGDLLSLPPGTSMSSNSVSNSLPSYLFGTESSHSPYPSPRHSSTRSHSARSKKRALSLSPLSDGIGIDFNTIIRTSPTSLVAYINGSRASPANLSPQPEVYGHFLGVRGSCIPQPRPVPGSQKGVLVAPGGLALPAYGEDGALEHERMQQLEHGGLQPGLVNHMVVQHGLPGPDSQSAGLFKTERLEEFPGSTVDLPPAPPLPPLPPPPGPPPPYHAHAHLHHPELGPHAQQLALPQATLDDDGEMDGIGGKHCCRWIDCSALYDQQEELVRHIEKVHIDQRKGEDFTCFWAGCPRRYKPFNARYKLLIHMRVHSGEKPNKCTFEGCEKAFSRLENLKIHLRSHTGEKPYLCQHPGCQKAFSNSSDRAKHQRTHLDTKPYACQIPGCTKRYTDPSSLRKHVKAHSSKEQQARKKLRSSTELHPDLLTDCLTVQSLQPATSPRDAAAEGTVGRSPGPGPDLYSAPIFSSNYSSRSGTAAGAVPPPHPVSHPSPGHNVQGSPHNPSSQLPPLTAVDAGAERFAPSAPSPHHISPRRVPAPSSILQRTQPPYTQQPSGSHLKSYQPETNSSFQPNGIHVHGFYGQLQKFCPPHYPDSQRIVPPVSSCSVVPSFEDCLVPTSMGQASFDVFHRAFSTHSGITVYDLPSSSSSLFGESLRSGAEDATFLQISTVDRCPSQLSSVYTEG
vp37b_human VPS37B, sequence (Q9H9H4 whole entry): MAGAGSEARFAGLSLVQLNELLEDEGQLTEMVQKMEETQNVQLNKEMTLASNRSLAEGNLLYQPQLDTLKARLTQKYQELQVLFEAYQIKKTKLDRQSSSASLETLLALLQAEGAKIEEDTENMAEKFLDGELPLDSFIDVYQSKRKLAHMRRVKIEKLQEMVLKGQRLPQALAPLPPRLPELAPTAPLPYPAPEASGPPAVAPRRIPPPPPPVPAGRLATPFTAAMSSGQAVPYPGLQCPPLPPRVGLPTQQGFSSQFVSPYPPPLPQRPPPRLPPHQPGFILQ
arrd3_human ARRDC3, sequence (Q96B67 whole entry): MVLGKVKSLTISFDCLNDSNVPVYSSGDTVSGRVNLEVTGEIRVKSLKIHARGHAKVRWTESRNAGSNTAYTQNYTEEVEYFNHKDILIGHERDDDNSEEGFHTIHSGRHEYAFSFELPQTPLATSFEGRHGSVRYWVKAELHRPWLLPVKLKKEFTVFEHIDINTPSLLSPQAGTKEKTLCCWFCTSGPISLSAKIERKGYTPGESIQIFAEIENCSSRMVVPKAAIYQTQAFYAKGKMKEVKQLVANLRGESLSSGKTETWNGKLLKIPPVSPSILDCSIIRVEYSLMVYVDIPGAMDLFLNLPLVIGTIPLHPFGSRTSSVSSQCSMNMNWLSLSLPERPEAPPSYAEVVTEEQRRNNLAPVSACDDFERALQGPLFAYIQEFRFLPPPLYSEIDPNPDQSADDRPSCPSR
SIAH1, Q8IUQ4-2, sequence (Q8IUQ4 other isoform, or with tags, fused parts or gaps): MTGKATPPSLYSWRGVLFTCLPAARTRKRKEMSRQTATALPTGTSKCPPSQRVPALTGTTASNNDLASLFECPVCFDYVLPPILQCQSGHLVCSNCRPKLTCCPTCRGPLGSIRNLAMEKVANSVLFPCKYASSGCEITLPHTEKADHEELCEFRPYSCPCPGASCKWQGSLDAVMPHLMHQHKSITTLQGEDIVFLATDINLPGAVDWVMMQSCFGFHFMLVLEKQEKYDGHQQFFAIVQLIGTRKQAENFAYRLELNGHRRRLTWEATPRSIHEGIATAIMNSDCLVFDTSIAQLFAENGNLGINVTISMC
magd1_human MAGED1, sequence (Q9Y5V3 whole entry): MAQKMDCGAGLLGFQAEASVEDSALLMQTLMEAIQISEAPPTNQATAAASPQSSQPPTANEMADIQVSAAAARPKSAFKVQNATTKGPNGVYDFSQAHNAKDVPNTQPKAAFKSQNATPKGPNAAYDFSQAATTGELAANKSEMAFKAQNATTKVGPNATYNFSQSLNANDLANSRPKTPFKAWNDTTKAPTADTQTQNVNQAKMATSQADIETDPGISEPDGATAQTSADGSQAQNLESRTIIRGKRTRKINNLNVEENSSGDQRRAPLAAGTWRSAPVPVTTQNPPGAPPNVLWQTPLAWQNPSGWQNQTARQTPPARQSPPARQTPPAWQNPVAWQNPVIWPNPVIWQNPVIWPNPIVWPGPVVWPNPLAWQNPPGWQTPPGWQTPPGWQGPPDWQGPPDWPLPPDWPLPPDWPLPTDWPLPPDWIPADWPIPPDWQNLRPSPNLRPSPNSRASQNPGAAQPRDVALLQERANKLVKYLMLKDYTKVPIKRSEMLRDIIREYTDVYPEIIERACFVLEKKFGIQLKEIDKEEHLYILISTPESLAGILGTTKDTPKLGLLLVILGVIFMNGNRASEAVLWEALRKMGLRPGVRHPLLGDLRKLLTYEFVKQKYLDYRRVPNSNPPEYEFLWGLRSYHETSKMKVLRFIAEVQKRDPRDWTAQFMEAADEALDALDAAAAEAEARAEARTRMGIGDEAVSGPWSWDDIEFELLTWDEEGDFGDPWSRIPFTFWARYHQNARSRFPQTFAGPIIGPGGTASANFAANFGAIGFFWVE
trib3_human TRIB3, sequence (Q96RU7 whole entry): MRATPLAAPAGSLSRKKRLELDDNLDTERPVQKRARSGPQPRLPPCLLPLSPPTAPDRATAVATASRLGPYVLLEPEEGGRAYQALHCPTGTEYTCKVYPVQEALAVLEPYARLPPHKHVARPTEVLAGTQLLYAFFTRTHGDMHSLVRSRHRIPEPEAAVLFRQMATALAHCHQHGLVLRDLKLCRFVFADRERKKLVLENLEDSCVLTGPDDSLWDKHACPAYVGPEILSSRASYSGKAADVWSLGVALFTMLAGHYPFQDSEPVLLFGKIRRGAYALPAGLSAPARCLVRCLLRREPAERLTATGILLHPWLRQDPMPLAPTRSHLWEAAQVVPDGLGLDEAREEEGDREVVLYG
hspb7_human HSPB7, sequence (Q9UBY9 whole entry): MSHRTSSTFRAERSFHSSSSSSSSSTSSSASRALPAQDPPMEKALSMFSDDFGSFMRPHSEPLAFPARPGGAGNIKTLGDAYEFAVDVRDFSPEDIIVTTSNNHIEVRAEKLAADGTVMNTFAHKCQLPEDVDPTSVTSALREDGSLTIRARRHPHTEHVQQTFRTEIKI
pdli7_human PDLIM7, sequence (Q9NR12 whole entry): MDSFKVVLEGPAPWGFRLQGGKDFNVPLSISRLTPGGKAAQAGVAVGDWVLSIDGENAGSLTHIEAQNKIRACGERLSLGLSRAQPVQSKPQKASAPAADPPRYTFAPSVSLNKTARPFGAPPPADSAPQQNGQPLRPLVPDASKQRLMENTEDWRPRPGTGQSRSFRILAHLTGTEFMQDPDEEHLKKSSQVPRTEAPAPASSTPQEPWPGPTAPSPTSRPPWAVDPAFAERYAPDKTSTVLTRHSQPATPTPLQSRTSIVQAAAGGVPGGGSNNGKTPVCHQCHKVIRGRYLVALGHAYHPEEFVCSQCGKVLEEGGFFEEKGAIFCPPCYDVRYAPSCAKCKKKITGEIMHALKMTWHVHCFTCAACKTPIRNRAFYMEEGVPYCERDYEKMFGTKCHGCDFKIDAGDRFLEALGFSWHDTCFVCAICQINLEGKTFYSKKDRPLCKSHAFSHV
mdfi_human MDFI, sequence (Q99750 whole entry): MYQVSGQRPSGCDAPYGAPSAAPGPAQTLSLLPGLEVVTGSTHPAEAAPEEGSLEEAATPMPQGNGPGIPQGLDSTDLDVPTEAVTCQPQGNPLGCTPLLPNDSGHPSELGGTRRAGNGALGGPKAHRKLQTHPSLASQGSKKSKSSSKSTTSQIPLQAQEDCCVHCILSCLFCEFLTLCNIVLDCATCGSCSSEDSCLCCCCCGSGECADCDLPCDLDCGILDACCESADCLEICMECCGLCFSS

effect of a mutation on the interaction [1] | effect of a mutation on the interaction [2] | effect of a mutation on the interaction [5] | effect of a mutation on the interaction [6] | effect of a mutation on the interaction [7] | effect of a mutation on the interaction [8] | effect of a mutation on the interaction [9] | effect of a mutation on the interaction [11] | effect of a mutation on the interaction [12] | effect of a mutation on the interaction [13] | effect of a mutation on the interaction [14] | effect of a mutation on the interaction [15] | effect of a mutation on the interaction [16] | effect of a mutation on the interaction [17] | effect of a mutation on the interaction [18] | effect of a mutation on the interaction [19] | effect of a mutation on the interaction [20] | effect of a mutation on the interaction [21] | effect of a mutation on the interaction [22] | effect of a mutation on the interaction [23] | Substance | also measured
with no effect | with no effect | with no effect | with no effect | disrupting interaction strength | with no effect | disrupting interaction strength | with no effect | disrupting interaction strength | with no effect | with no effect | with no effect | with no effect | with no effect | with no effect | with no effect | with no effect | disrupting interaction strength | with no effect | with no effect | BAG family molecular chaperone regulator 3 (Homo sapiens), O95817 L462P | effect of a mutation on the interaction [3]: disrupting interaction strength; effect of a mutation on the interaction [4]: with no effect; effect of a mutation on the interaction [10]: with no effect; effect of a mutation on the interaction [24]: with no effect; effect of a mutation on the interaction [25]: with no effect; effect of a mutation on the interaction [26]: with no effect; effect of a mutation on the interaction [27]: disrupting interaction strength; effect of a mutation on the interaction [28]: with no effect; effect of a mutation on the interaction [29]: with no effect; effect of a mutation on the interaction [30]: with no effect
with no effect | with no effect | with no effect | with no effect | with no effect | with no effect | with no effect | with no effect | with no effect | with no effect | with no effect | with no effect | with no effect | with no effect | with no effect | with no effect | with no effect | with no effect | with no effect | with no effect | BAG family molecular chaperone regulator 3 (Homo sapiens), O95817 R218W | effect of a mutation on the interaction [10]: with no effect; effect of a mutation on the interaction [24]: with no effect; effect of a mutation on the interaction [25]: with no effect; effect of a mutation on the interaction [27]: with no effect; effect of a mutation on the interaction [28]: with no effect; effect of a mutation on the interaction [29]: with no effect; effect of a mutation on the interaction [30]: with no effect
with no effect | with no effect | with no effect | with no effect | with no effect | with no effect | with no effect | with no effect | with no effect | with no effect | with no effect | with no effect | with no effect | with no effect | with no effect | with no effect | with no effect | with no effect | with no effect | with no effect | BAG family molecular chaperone regulator 3 (Homo sapiens), O95817 R258W | effect of a mutation on the interaction [3]: disrupting interaction strength; effect of a mutation on the interaction [4]: with no effect; effect of a mutation on the interaction [24]: with no effect; effect of a mutation on the interaction [25]: with no effect; effect of a mutation on the interaction [26]: with no effect; effect of a mutation on the interaction [27]: with no effect; effect of a mutation on the interaction [28]: with no effect; effect of a mutation on the interaction [29]: with no effect; effect of a mutation on the interaction [30]: with no effect
